Literature values in article PMC4740375.
Read-outs that look alike come from different tables or passages of the source.

Columns and labels:
CD28 (Homo sapiens) [1] = molecular target: CD28 (Homo sapiens) (UniProt P10747)
CD28 (Homo sapiens) [2] = molecular target: CD28 (Homo sapiens) (UniProt P10747); remark: listed apart in the source

Kd (CD28 (Homo sapiens) [1]) [µM]	Kd (CD28 (Homo sapiens) [2]) [µM]	Substance
20		CD86 (from UniProt P42081)
	4	CD80 (from UniProt P33681)
